{"source": "paper PMC12510224", "molecular_target": "MDM2(S395D) S395D (UniProt Q00987)", "sequence (Q00987 whole entry S395D)": "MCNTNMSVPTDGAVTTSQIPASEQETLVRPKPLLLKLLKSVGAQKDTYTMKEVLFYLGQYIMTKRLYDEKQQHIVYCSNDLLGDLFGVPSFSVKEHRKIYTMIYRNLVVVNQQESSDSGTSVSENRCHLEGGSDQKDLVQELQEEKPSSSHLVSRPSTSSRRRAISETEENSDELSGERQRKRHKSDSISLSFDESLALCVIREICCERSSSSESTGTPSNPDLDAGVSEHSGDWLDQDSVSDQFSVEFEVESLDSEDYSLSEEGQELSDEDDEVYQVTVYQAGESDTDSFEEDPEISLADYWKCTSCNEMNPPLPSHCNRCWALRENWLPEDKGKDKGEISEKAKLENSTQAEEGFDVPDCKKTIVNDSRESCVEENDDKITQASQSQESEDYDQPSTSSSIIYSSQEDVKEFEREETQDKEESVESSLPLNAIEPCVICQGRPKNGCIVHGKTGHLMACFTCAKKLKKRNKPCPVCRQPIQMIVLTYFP", "experiment": "RNA co-IP (anti-MDM2 4B2) with RT-qPCR", "conditions": "RNA co-IP: 50 mM Tris pH 7.5, 150 mM NaCl, 0.01 mM ZnSO4, 2 mM MgCl2, 0.02 mg/mL yeast tRNA, 0.2 mg/mL BSA, room temperature, pull-down overnight at 4 C"}
{"sequence": "AUGGAGGAGCCGCAGUCAGAUCCUAGCGUCGAGCCCCCUCUGAGUCAGGAAACAUUUUCAGACCUAUGGAAACUACUUCCUGAAAACAACGUUCUGUCCCCCUUGCCGUCCCAAGCAAUGGAUGAUUUGAUGCUGUCCCCGGACGAUAUUGAACAAUGGUUCACUGAAGACCCAGGUCCAGAUGAAGCUCCCAGAAUGCCAGAGGCUGCUCCCCCCGUGGCCCCUGCACCAGCAGCUCCU [p53 mRNA +1 to +240 WT]", "values": [{"measurement": "binding signal (fold increase over no BOX-I oligo)", "value": 60}]}
